Assay results: doi:10.1101/2025.06.24.661325

Molecular target: M. tuberculosis MmpL5 Δ494-688 with C-terminal GFP-FLAG tag (M. tuberculosis) (UniProt P9WJV1)
Assay: cryo-EM structure

For “M. tuberculosis MmpL5 Δ494-688 with C-terminal GFP-FLAG tag (from UniProt P9WJV1 1-964) (natural protein)”, the stoichiometry N was 3.
